System: human HL60 cells
Experiment: SWATH-MS proteomics, differential protein representation, akirin2 KO vs WT HL60 cells
Format: cell-based
Settings: akirin2 KO vs WT HL60 cells
Procedure, shortened: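 Differential representation compares akirin2 KO with WT HL60 across three biological replicates, 5 µg digest each, acquired by data-independent SWATH on a 120-min gradient. Library built from combined IDA runs searched with Paragon; proteins accepted at 1% FDR, with total-area-sum normalization.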

[1] = SWATH-MS, under-represented in KO
[2] = sheet "Under-represented in KO"

Molecule | Fold Change [1] | Log (Fold Change) [1] | Fold Change [2] | Log (Fold Change) [2]
sp¦P08240¦SRPRA_HUMAN (protein, UniProt P08240 1-638, looked up) Signal recognition particle …: MLDFFTIFSKGGLVLWCFQGVSDSCTGPVNALIRSVLLQERGGNNSFTHEALTLKYKLDNQFELVFVVGFQKILTLTYVDKLIDDVHRLFRDKYRTEIQQQSALSLLNGTFDFQNDFLRLLREAEESSKIRAPTTMKKFEDSEKAKKPVRSMIETRGEKPKEKAKNSKKKGAKKEGSDGPLATSKPVPAEKSGLPVGPENGVELSKEELIRRKREEFIQKHGRGMEKSNKSTKSDAPKEKGKKAPRVWELGGCANKEVLDYSTPTTNGTPEAALSEDINLIRGTGSGGQLQDLDCSSSDDEGAAQNSTKPSATKGTLGGMFGMLKGLVGSKSLSREDMESVLDKMRDHLIAKNVAADIAVQLCESVANKLEGKVMGTFSTVTSTVKQALQESLVQILQPQRRVDMLRDIMDAQRRQRPYVVTFCGVNGVGKSTNLAKISFWLLENGFSVLIAACDTFRAGAVEQLRTHTRRLSALHPPEKHGGRTMVQLFEKGYGKDAAGIAMEAIAFARNQGFDVVLVDTAGRMQDNAPLMTALAKLITVNTPDLVLFVGEALVGNEAVDQLVKFNRALADHSMAQTPRLIDGIVLTKFDTIDDKVGAAISMTYITSKPIVFVGTGQTYCDLRSLNAKAVVAALMKA | 0.7296 | -0.1369 | – | –
sp¦O95466¦FMNL1_HUMAN (protein, UniProt O95466 2-1100, looked up) Formin-like protein 1: GNAAGSAEQPAGPAAPPPKQPAPPKQPMPAAGELEERFNRALNCMNLPPDKVQLLSQYDNEKKWELICDQERFQVKNPPAAYIQKLKSYVDTGGVSRKVAADWMSNLGFKRRVQESTQVLRELETSLRTNHIGWVQEFLNEENRGLDVLLEYLAFAQCSVTYDMESTDNGASNSEKNKPLEQSVEDLSKGPPSSVPKSRHLTIKLTPAHSRKALRNSRIVSQKDDVHVCIMCLRAIMNYQSGFSLVMNHPACVNEIALSLNNKNPRTKALVLELLAAVCLVRGGHDIILAAFDNFKEVCGEQHRFEKLMEYFRNEDSNIDFMVACMQFINIVVHSVENMNFRVFLQYEFTHLGLDLYLERLRLTESDKLQVQIQAYLDNIFDVGALLEDTETKNAVLEHMEELQEQVALLTERLRDAENESMAKIAELEKQLSQARKELETLRERFSESTAMGPSRRPPEPEKAPPAAPTRPSALELKVEELEEKGLIRILRGPGDAVSIEILPVAVATPSGGDAPTPGVPTGSPSPDLAPAAEPAPGAAPPPPPPLPGLPSPQEAPPSAPPQAPPLPGSPEPPPAPPLPGDLPPPPPPPPPPPGTDGPVPPPPPPPPPPPGGPPDALGRRDSELGPGVKAKKPIQTKFRMPLLNWVALKPSQITGTVFTELNDEKVLQELDMSDFEEQFKTKSQGPSLDLSALKSKAAQKAPSKATLIEANRAKNLAITLRKGNLGAERICQAIEAYDLQALGLDFLELLMRFLPTEYERSLITRFEREQRPMEELSEEDRFMLCFSRIPRLPERMTTLTFLGNFPDTAQLLMPQLNAIIAASMSIKSSDKLRQILEIVLAFGNYMNSSKRGAAYGFRLQSLDALLEMKSTDRKQTLLHYLVKVIAEKYPQLTGFHSDLHFLDKAGSVSLDSVLADVRSLQRGLELTQREFVRQDDCMVLKEFLRANSPTMDKLLADSKTAQEAFESVVEYFGENPKTTSPGLFFSLFSRFIKAYKKAEQEVEQWKKEAAAQEAGADTPGKGEPPAPKSPPKARRPQMDLISELKRRQQKEPLIYESDRDGAIEDIITVIKTVPFTARTGKRTSRLLCEASLGEEMPL | – | – | 0.3323 | -0.4785
sp¦P05164¦PERM_HUMAN (protein, UniProt P05164 165-745, looked up) Myeloperoxidase: VTCPEQDKYRTITGMCNNRRSPTLGASNRAFVRWLPAEYEDGFSLPYGWTPGVKRNGFPVALARAVSNEIVRFPTDQLTPDQERSLMFMQWGQLLDHDLDFTPEPAARASFVTGVNCETSCVQQPPCFPLKIPPNDPRIKNQADCIPFFRSCPACPGSNITIRNQINALTSFVDASMVYGSEEPLARNLRNMSNQLGLLAVNQRFQDNGRALLPFDNLHDDPCLLTNRSARIPCFLAGDTRSSEMPELTSMHTLLLREHNRLATELKSLNPRWDGERLYQEARKIVGAMVQIITYRDYLPLVLGPTAMRKYLPTYRSYNDSVDPRIANVFTNAFRYGHTLIQPFMFRLDNRYQPMEPNPRVPLSRVFFASWRVVLEGGIDPILRGLMATPAKLNRQNQIAVDEIRERLFEQVMRIGLDLPALNMQRSRDHGLPGYNAWRRFCGLPQPETVGQLGTVLRNLKLARKLMEQYGTPNNIDIWMGGVSEPLKRKGRVGPLLACIIGTQFRKLRDGDRFWWENEGVFSMQQRQALAQISLPRIICDNTGITTVSKNNIFMSNSYPRDFVNCSTLPALNLASWREAS | 0.7315 | -0.1358 | – | –
sp¦P23634¦AT2B4_HUMAN (protein, UniProt P23634 1-1241, looked up) Plasma membrane …: MTNPSDRVLPANSMAESREGDFGCTVMELRKLMELRSRDALTQINVHYGGVQNLCSRLKTSPVEGLSGNPADLEKRRQVFGHNVIPPKKPKTFLELVWEALQDVTLIILEIAAIISLVLSFYRPAGEENELCGQVATTPEDENEAQAGWIEGAAILFSVIIVVLVTAFNDWSKEKQFRGLQCRIEQEQKFSIIRNGQLIQLPVAEIVVGDIAQVKYGDLLPADGILIQGNDLKIDESSLTGESDHVKKSLDKDPMLLSGTHVMEGSGRMVVTAVGVNSQTGIILTLLGVNEDDEGEKKKKGKKQGVPENRNKAKTQDGVALEIQPLNSQEGIDNEEKDKKAVKVPKKEKSVLQGKLTRLAVQIGKAGLLMSALTVFILILYFVIDNFVINRRPWLPECTPIYIQYFVKFFIIGITVLVVAVPEGLPLAVTISLAYSVKKMMKDNNLVRHLDACETMGNATAICSDKTGTLTMNRMTVVQAYIGGIHYRQIPSPDVFLPKVLDLIVNGISINSAYTSKILPPEKEGGLPRQVGNKTECALLGFVTDLKQDYQAVRNEVPEEKLYKVYTFNSVRKSMSTVIRNPNGGFRMYSKGASEIILRKCNRILDRKGEAVPFKNKDRDDMVRTVIEPMACDGLRTICIAYRDFDDTEPSWDNENEILTELTCIAVVGIEDPVRPEVPDAIAKCKQAGITVRMVTGDNINTARAIATKCGILTPGDDFLCLEGKEFNRLIRNEKGEVEQEKLDKIWPKLRVLARSSPTDKHTLVKGIIDSTVGEHRQVVAVTGDGTNDGPALKKADVGFAMGIAGTDVAKEASDIILTDDNFTSIVKAVMWGRNVYDSISKFLQFQLTVNVVAVIVAFTGACITQDSPLKAVQMLWVNLIMDTFASLALATEPPTESLLKRRPYGRNKPLISRTMMKNILGHAFYQLIVIFILVFAGEKFFDIDSGRKAPLHSPPSQHYTIVFNTFVLMQLFNEINSRKIHGEKNVFSGIYRNIIFCSVVLGTFICQIFIVEFGGKPFSCTSLSLSQWLWCLFIGIGELLWGQFISAIPTRSLKFLKEAGHGTTKEEITKDAEGLDEIDHAEMELRRGQILWFRGLNRIQTQIDVINTFQTGASFKGVLRRQNMGQHLDVKLVPSSSYIKVVKAFHSSLHESIQKPYNQKSIHSFMTHPEFAIEEELPRTPLLDEEEEENPDKASKFGTRVLLLDGEVTPYANTNNNAVDCNQVQLPQSDSSLQSLETSV | – | – | 0.3316 | -0.4794
sp¦P10809¦CH60_HUMAN (protein, UniProt P10809 27-573, looked up) 60 kDa heat shock protein, …: AKDVKFGADARALMLQGVDLLADAVAVTMGPKGRTVIIEQSWGSPKVTKDGVTVAKSIDLKDKYKNIGAKLVQDVANNTNEEAGDGTTTATVLARSIAKEGFEKISKGANPVEIRRGVMLAVDAVIAELKKQSKPVTTPEEIAQVATISANGDKEIGNIISDAMKKVGRKGVITVKDGKTLNDELEIIEGMKFDRGYISPYFINTSKGQKCEFQDAYVLLSEKKISSIQSIVPALEIANAHRKPLVIIAEDVDGEALSTLVLNRLKVGLQVVAVKAPGFGDNRKNQLKDMAIATGGAVFGEEGLTLNLEDVQPHDLGKVGEVIVTKDDAMLLKGKGDKAQIEKRIQEIIEQLDVTTSEYEKEKLNERLAKLSDGVAVLKVGGTSDVEVNEKKDRVTDALNATRAAVEEGIVLGGGCALLRCIPALDSLTPANEDQKIGIEIIKRTLKIPAMTIAKNAGVEGSLIVEKIMQSSSEVGYDAMAGDFVNMVEKGIIDPTKVVRTALLDAAGVASLLTTAEVVVTEIPKEEKDPGMGAMGGMGGGMGGGMF | 0.7233 | -0.1407 | – | –

Source: publication PMC8298264, “Function of cofactor Akirin2 in the regulation of gene expression in model human neutrophil-like HL60 cells” (Bioscience Reports, 2021)
